T1: human TL1A extracellular domain with N-terminal HIS and FLAG tag (human, UniProt O95150 72-251)
T1 construct: whole entry named. ~70 kDa fraction purified by gel filtration
T1 sequence: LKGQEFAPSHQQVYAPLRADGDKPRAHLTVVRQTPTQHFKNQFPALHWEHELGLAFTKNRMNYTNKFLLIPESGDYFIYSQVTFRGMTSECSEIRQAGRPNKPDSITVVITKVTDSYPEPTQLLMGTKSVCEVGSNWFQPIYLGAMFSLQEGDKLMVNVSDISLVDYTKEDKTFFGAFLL


What was measured:
[1] = target: T1, human TL1A extracellular domain with …; assay: SPR run 3; supernatant on Protein A; TL1A 10 ug/mL; timepoint 59
Source text: (§1) 1.5. Antibody expression and antigen binding as determined by SPR. Using a CM5 sensor chip (GE Healthcare) Protein A (Pierce) was coupled to the chip surface using an amine coupling kit (GE Healthcare). Protein A was coupled on flow cell 1 and 2 (or alternatively 3 and 4) using a BIACORE® T200. […] The amount of supernatant or purified protein (as well as the concentration) injected during the capture stage varied between runs and is specified in the header of the Tables 3-11. At the end of injection of the supernatant or purified antibody the change in response units was measured. This value was reported as Capture Level in Tables 3-11. […] The response units were measured prior to the end of the dissociation phase. […] The sensorgrams were double referenced (flow cell 2 is subtracted from flow cell 1 and a buffer blank). As there were a large number of antibody variants to screen, these were screened across different runs (Tables 3-11). […] A summary of the conditions used in each run is below:
(§2) 2.1. […] In some experiment the antibodies were purified using Protein A chromatography (See 1.4) and purified antibodies were used in BIACORE® (GE Healthcare) experiments.

[2] = target: T1, human TL1A extracellular domain with …; assay: SPR run 3; supernatant on Protein A; TL1A 10 ug/mL; timepoint 590
Source text: as §1, §2

Binder	TL1A Binding Level (Early) [1]	TL1A Binding Level (Late) [2]
320-296 (antibody, human IgG1, name in Kabat numbering, V domains shown, human IgG1, lambda) VH: QVQLVQSGAEVKKPGASVKVSCKASGYTFTSYDINWVRQAPGQGLEWMGWLNPNSGNTGYAQKFQGRVTMTADRSTSTAYMELSSLRSEDTAVYYCAREVPETAAFEYWGQGTLVTVSS VL: QSVLTQPPSVSGAPGQRVTISCTSSSSDIGAGLGDHWYQQLPGTAPKLLIEGYYNRPSGVPDRFSGSKSGTSASLTITGLLPEDEGDYYCQSYDGTLSALFGGGTKLTVLG	118 RU	104 RU
320-295 (antibody, human IgG1, name in Kabat numbering, V domains shown, human IgG1, lambda) VH: QVQLVQSGAEVKKPGASVKVSCKASGYTFTSYDINWVRQAPGQGLEWMGWLNPNSGNTGYAQKFQGRVTMTADRSTSTAYMELSSLRSEDTAVYYCAREVPETAAFEYWGQGTLVTVSS VL: QSVLTQPPSVSGAPGQRVTISCTSSSSDIGAGLGQHWYQQLPGTAPKLLIEGYYNRPSGVPDRFSGSKSGTSASLTITGLLPEDEGDYYCQSYDGTLSALFGGGTKLTVLG	109 RU	94 RU
320-292 (antibody, human IgG1, name in Kabat numbering, V domains shown, human IgG1, lambda) VH: QVQLVQSGAEVKKPGASVKVSCKASGYTFTSYDINWVRQAPGQGLEWMGWLNPNSGNTGYAQKFQGRVTMTADRSTSTAYMELSSLRSEDTAVYYCAREVPETAAFEYWGQGTLVTVSS VL: QSVLTQPPSVSGAPGQRVTISCTSSSSDIGAGLYVHWYQQLPGTAPKLLIEGYYNRPSGVPDRFSGSKSGTSASLTITGLLPEDEGDYYCQSYDGTLSALFGGGTKLTVLG	111 RU	94 RU
320-303 (antibody, human IgG1, name in Kabat numbering, V domains shown, human IgG1, lambda) VH: QVQLVQSGAEVKKPGASVKVSCKASGYTFTSYDINWVRQAPGQGLEWMGWLNPNSGNTGYAQKFQGRVTMTADRSTSTAYMELSSLRSEDTAVYYCAREVPETAAFEYWGQGTLVTVSS VL: QSVLTQPPSVSGAPGQRVTISCTSSSSDIGAGLGVSWYQQLPGTAPKLLIEGYYNRPSGVPDRFSGSKSGTSASLTITGLLPEDEGDYYCQSYDGTLSALFGGGTKLTVLG	71 RU	32 RU
320-299 (antibody, human IgG1, name in Kabat numbering, V domains shown, human IgG1, lambda) VH: QVQLVQSGAEVKKPGASVKVSCKASGYTFTSYDINWVRQAPGQGLEWMGWLNPNSGNTGYAQKFQGRVTMTADRSTSTAYMELSSLRSEDTAVYYCAREVPETAAFEYWGQGTLVTVSS VL: QSVLTQPPSVSGAPGQRVTISCTSSSSDIGAGLGLHWYQQLPGTAPKLLIEGYYNRPSGVPDRFSGSKSGTSASLTITGLLPEDEGDYYCQSYDGTLSALFGGGTKLTVLG	51 RU	13 RU
320-293 (antibody, human IgG1, name in Kabat numbering, V domains shown, human IgG1, lambda) VH: QVQLVQSGAEVKKPGASVKVSCKASGYTFTSYDINWVRQAPGQGLEWMGWLNPNSGNTGYAQKFQGRVTMTADRSTSTAYMELSSLRSEDTAVYYCAREVPETAAFEYWGQGTLVTVSS VL: QSVLTQPPSVSGAPGQRVTISCTSSSSDIGAGLGAHWYQQLPGTAPKLLIEGYYNRPSGVPDRFSGSKSGTSASLTITGLLPEDEGDYYCQSYDGTLSALFGGGTKLTVLG	104 RU	86 RU
320-282 (antibody, human IgG1, name in Kabat numbering, V domains shown, human IgG1, lambda) VH: QVQLVQSGAEVKKPGASVKVSCKASGYTFTSYDINWVRQAPGQGLEWMGWLNPNSGNTGYAQKFQGRVTMTADRSTSTAYMELSSLRSEDTAVYYCAREVPETAAFEYWGQGTLVTVSS VL: QSVLTQPPSVSGAPGQRVTISCTSSSSDIGAGWGVHWYQQLPGTAPKLLIEGYYNRPSGVPDRFSGSKSGTSASLTITGLLPEDEGDYYCQSYDGTLSALFGGGTKLTVLG	75 RU	16 RU
320-294 (antibody, human IgG1, name in Kabat numbering, V domains shown, human IgG1, lambda) VH: QVQLVQSGAEVKKPGASVKVSCKASGYTFTSYDINWVRQAPGQGLEWMGWLNPNSGNTGYAQKFQGRVTMTADRSTSTAYMELSSLRSEDTAVYYCAREVPETAAFEYWGQGTLVTVSS VL: QSVLTQPPSVSGAPGQRVTISCTSSSSDIGAGLGSHWYQQLPGTAPKLLIEGYYNRPSGVPDRFSGSKSGTSASLTITGLLPEDEGDYYCQSYDGTLSALFGGGTKLTVLG	79 RU	61 RU
320-308 (antibody, human IgG1, name in Kabat numbering, V domains shown, human IgG1, lambda) VH: QVQLVQSGAEVKKPGASVKVSCKASGYTFTSYDINWVRQAPGQGLEWMGWLNPNSGNTGYAQKFQGRVTMTADRSTSTAYMELSSLRSEDTAVYYCAREVPETAAFEYWGQGTLVTVSS VL: QSVLTQPPSVSGAPGQRVTISCTSSSSDIGAGLGVWWYQQLPGTAPKLLIEGYYNRPSGVPDRFSGSKSGTSASLTITGLLPEDEGDYYCQSYDGTLSALFGGGTKLTVLG	106 RU	73 RU

Results, then the binder that gave them:

TL1A Binding Level (Early) [1]	TL1A Binding Level (Late) [2]	Binder
44 RU	10 RU	320-275 (antibody, human IgG1, name in Kabat numbering, V domains shown, human IgG1, lambda) VH: QVQLVQSGAEVKKPGASVKVSCKASGYTFTSYDINWVRQAPGQGLEWMGWLNPNSGNTGYAQKFQGRVTMTADRSTSTAYMELSSLRSEDTAVYYCAREVPETAAFEYWGQGTLVTVSS VL: QSVLTQPPSVSGAPGQRVTISCTSSSSDIGAYLGVHWYQQLPGTAPKLLIEGYYNRPSGVPDRFSGSKSGTSASLTITGLLPEDEGDYYCQSYDGTLSALFGGGTKLTVLG
22 RU	6 RU	320-281 (antibody, human IgG1, name in Kabat numbering, V domains shown, human IgG1, lambda) VH: QVQLVQSGAEVKKPGASVKVSCKASGYTFTSYDINWVRQAPGQGLEWMGWLNPNSGNTGYAQKFQGRVTMTADRSTSTAYMELSSLRSEDTAVYYCAREVPETAAFEYWGQGTLVTVSS VL: QSVLTQPPSVSGAPGQRVTISCTSSSSDIGAGKGVHWYQQLPGTAPKLLIEGYYNRPSGVPDRFSGSKSGTSASLTITGLLPEDEGDYYCQSYDGTLSALFGGGTKLTVLG
114 RU	100 RU	320-298 (antibody, human IgG1, name in Kabat numbering, V domains shown, human IgG1, lambda) VH: QVQLVQSGAEVKKPGASVKVSCKASGYTFTSYDINWVRQAPGQGLEWMGWLNPNSGNTGYAQKFQGRVTMTADRSTSTAYMELSSLRSEDTAVYYCAREVPETAAFEYWGQGTLVTVSS VL: QSVLTQPPSVSGAPGQRVTISCTSSSSDIGAGLGKHWYQQLPGTAPKLLIEGYYNRPSGVPDRFSGSKSGTSASLTITGLLPEDEGDYYCQSYDGTLSALFGGGTKLTVLG
103 RU	82 RU	320-304 (antibody, human IgG1, name in Kabat numbering, V domains shown, human IgG1, lambda) VH: QVQLVQSGAEVKKPGASVKVSCKASGYTFTSYDINWVRQAPGQGLEWMGWLNPNSGNTGYAQKFQGRVTMTADRSTSTAYMELSSLRSEDTAVYYCAREVPETAAFEYWGQGTLVTVSS VL: QSVLTQPPSVSGAPGQRVTISCTSSSSDIGAGLGVQWYQQLPGTAPKLLIEGYYNRPSGVPDRFSGSKSGTSASLTITGLLPEDEGDYYCQSYDGTLSALFGGGTKLTVLG
147 RU	133 RU	320-306 (antibody, human IgG1, name in Kabat numbering, V domains shown, human IgG1, lambda) VH: QVQLVQSGAEVKKPGASVKVSCKASGYTFTSYDINWVRQAPGQGLEWMGWLNPNSGNTGYAQKFQGRVTMTADRSTSTAYMELSSLRSEDTAVYYCAREVPETAAFEYWGQGTLVTVSS VL: QSVLTQPPSVSGAPGQRVTISCTSSSSDIGAGLGVKWYQQLPGTAPKLLIEGYYNRPSGVPDRFSGSKSGTSASLTITGLLPEDEGDYYCQSYDGTLSALFGGGTKLTVLG
34 RU	10 RU	320-305 (antibody, human IgG1, name in Kabat numbering, V domains shown, human IgG1, lambda) VH: QVQLVQSGAEVKKPGASVKVSCKASGYTFTSYDINWVRQAPGQGLEWMGWLNPNSGNTGYAQKFQGRVTMTADRSTSTAYMELSSLRSEDTAVYYCAREVPETAAFEYWGQGTLVTVSS VL: QSVLTQPPSVSGAPGQRVTISCTSSSSDIGAGLGVDWYQQLPGTAPKLLIEGYYNRPSGVPDRFSGSKSGTSASLTITGLLPEDEGDYYCQSYDGTLSALFGGGTKLTVLG
244 RU	215 RU	320-276 (antibody, human IgG1, name in Kabat numbering, V domains shown, human IgG1, lambda) VH: QVQLVQSGAEVKKPGASVKVSCKASGYTFTSYDINWVRQAPGQGLEWMGWLNPNSGNTGYAQKFQGRVTMTADRSTSTAYMELSSLRSEDTAVYYCAREVPETAAFEYWGQGTLVTVSS VL: QSVLTQPPSVSGAPGQRVTISCTSSSSDIGAGAGVHWYQQLPGTAPKLLIEGYYNRPSGVPDRFSGSKSGTSASLTITGLLPEDEGDYYCQSYDGTLSALFGGGTKLTVLG
144 RU	128 RU	320-279 (antibody, human IgG1, name in Kabat numbering, V domains shown, human IgG1, lambda) VH: QVQLVQSGAEVKKPGASVKVSCKASGYTFTSYDINWVRQAPGQGLEWMGWLNPNSGNTGYAQKFQGRVTMTADRSTSTAYMELSSLRSEDTAVYYCAREVPETAAFEYWGQGTLVTVSS VL: QSVLTQPPSVSGAPGQRVTISCTSSSSDIGAGDGVHWYQQLPGTAPKLLIEGYYNRPSGVPDRFSGSKSGTSASLTITGLLPEDEGDYYCQSYDGTLSALFGGGTKLTVLG
